According to the Human Domainome abundance scans (Beltran et al. 2025):

B1: Homeobox protein cut-like 1, residues 941 to 1008; numbered along this chain, P39880 (parent)
chain: QEVDTIELTRQVKEKLAKNGICQRIFGEKVLGLSQGSVSDMLSRPKPWSKLTQKGREPFIRMQLWLNG

Variants of: B1
Assay: abundance fitness (aPCA) (normalised: wild type 0, dead -1); higher = more abundant; growth selection in yeast, the domain comes from the species named
Details: Homo sapiens

Abundance fitness of substitutions, site by site:
K18: F -0.287, D -0.397, A -0.083, S -0.102, R -0.139, N -0.051, G -0.226, W -0.272, M -0.059, V -0.184, I -0.085, Q -0.134, Y -0.527, H -0.412, E 0, L -0.168, C -0.261
V12: C -0.461, L -0.359, W -0.226, N -0.28, D -0.049, K -0.183, E -0.113, M -0.084, A -0.171, I -0.338, R -0.131, S -0.091, Y -0.175, H -0.142, T -0.177, Q -0.143, P -0.008, G -0.01, F -0.289
R24: M -0.315, I -0.29, N 0.005, Y -0.101, F -0.362, L -0.253, Q -0.088, S -0.136, G -0.224, T -0.268, V -0.204, E 0.109, C -0.22, K -0.07, D -0.074, W -0.144, P -0.559
L16: P 0.004, E -0.032, W -0.194, S -0.033, N -0.217, F -0.257, Q -0.102, C -0.073, A -0.188, D -0.189, R -0.033, I -0.198, V -0.162, H 0.009, Y -0.278, T 0.023, G -0.015, M 0.107
F26: K -0.45, L -0.312, T -0.796, G -0.622, Y -0.741, E -0.883, V -0.648, Q -0.721, S -0.704, R -0.526, H -0.927, P -0.574, W 0.03, M -0.459, N -0.991, A -0.649, D -1.05, C -0.709, I -0.45
G20: P -0.141, H -0.24, K 0.046, L -0.277, V -0.441, Q 0.067, D -0.279, W -0.287, I -0.361, Y -0.104, E -0.331, T -0.087, M -0.231, F -0.239, S -0.112, A -0.135, R -0.048, C -0.317
R10: P -0.157, C -0.22, H -0.226, D -0.112, Q -0.135, E -0.056, G -0.089, I -0.301, A -0.096, S -0.111, L -0.246, W -0.509, Y -0.306, K 0.074, N 0.036, F -0.307
N19: T 0.034, L 0.125, I 0.075, P 0.043, A -0.033, V 0.023, F 0.07, E 0.098, G -0.087, D 0.17, W -0.234, Y -0.331, M 0.017, Q 0.042, K -0.019
Q23: I -0.537, D -0.429, W -0.044, R -0.019, G -0.28, L -0.038, K -0.245, F -0.265, C -0.281, P -0.044, E -0.068, V -0.321, T -0.104, A -0.161, Y -0.162, N -0.133, M -0.195, H -0.117, S -0.029
T9: P -0.28, G -0.047, K -0.109, C -0.087, R -0.212, I -0.113, W -0.197, S -0.149, E -0.191
